The series deals with T1, MsABI5 (Malus sieversii, UniProt A0A498IDK6 1-328+A0A540LD52:305-441, internal_change).
T1 sequence: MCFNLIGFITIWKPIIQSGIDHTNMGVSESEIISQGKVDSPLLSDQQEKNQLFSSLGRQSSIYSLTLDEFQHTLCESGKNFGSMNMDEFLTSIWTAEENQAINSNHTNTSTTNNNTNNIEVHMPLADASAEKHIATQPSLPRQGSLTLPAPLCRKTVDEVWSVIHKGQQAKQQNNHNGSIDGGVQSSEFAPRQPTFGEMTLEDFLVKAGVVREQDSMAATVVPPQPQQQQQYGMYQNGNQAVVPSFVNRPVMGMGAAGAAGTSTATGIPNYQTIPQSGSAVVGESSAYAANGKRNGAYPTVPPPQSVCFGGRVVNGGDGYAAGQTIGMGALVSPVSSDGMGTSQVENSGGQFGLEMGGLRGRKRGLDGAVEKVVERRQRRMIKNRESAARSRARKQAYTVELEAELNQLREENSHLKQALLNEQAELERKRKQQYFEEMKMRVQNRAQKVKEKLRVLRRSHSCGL
The experiment in a line: EMSA; EMSA per manufacturer's instructions (Beyotime); buffer, salt, pH and temperature not stated. Conditions: protein: recombinant; tags: MBP (pMAL-C2X); chain copies: 2; blunt.

B1: MsP5CS2.2 promoter ABRE probe (dsDNA)
DNA 1: AGAAACCGACACGTCTCTCTTTTCTA
DNA 2: TAGAAAAGAGAGACGTGTCGGTTTCT
As for B1, the binding result was “binds”.

B2: MsSMXL1 promoter P3 ACE probe (dsDNA)
DNA 1: ATGTTGATTAACGTACCACTTAGTAC
DNA 2: GTACTAAGTGGTACGTTAATCAACAT
For the molecule B2, the binding result is given as “binds”.

The values are drawn from publication PMC12090352, “Strigolactones enhance apple drought resistance via the MsABI5-MsSMXL1-MsNAC022 cascade”.
